Reference: the nanobody polyreactivity screen of Harvey et al. (2022)

Assay: yeast display, Sf9 membrane polyspecificity reagent, FACS + sequencing; frameworks hold sequencing errors
In short: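 Using colony PCR, genes from sorted yeast display clones were amplified, then sequenced on MiSeq at 2 × 250 and filtered by CDR length. The clones had been stained with 10% biotinylated, detergent-solubilized Sf9 membrane reagent for 1 hour at 4 °C and sorted by FACS into low and high (top ~1%) gates on anti-HA and streptavidin fluorescence. Polyreactivity labels come from the gate of origin.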

Sequence	polyreactivity (PSR sort gate)
QVQLVESGGGLVQAGGSLRLSCDASGLIFYDNMGWYRQAPGKERELVAAISSSGGSTSYADSVKGRFTISRDNAKNTVYLQMNSLKPEDTAVYYCAAELGYIGSYYWIYYYWGQGTQGTVSS	low polyreactivity
QVQLVESGGGLVQAGGSLRLSCDASGLILGINSMGWYRQAPGKERELVAAISSSGGRTSYADSVKGRFTISRDNAKNTVYLQMNSLKPEDTAVYYCAKRRTTYSHYDYWGQGTQVTVSS	low polyreactivity
QVQLVESGGGLVQAGGSLRLSCDASGNIFKSYVMGWYRQAPGKERELVAAITWSGGSTYYADSVKGRFTISRDNAKNTVYLQMNSLKPEDTAVYYCAAYPRRYRTTYDYWGQGTQVTVSS	high polyreactivity
QVQLVESGGGLVQAGGSLRLSCDASGNIFYPNAMGLYRQAPGKERELVAAISSSGGSTYYADSVKGRFTISRDNAKNTVYLQMNSLKPEDTAVYYFAKDRSYAYYLWPYPTGYDYWGQGTQVTVSS	low polyreactivity
QVQLVESGGGLVQAGGSLRLSCDASGNTFHTNAMGWYRQAPGKERELVAAITGGGSTYYADSVKGRFTISRDNAKKTVYLQMNSLKPEDTAVYYCNTDVPYGLDVSDTIDYFYWGQGTKVTVSS	low polyreactivity
QVQLVESGGGLVQAGGSLRLSCDASGRIFHIYAMGWYREAPGKERELVASISWSGDSTYYADSVKGRFTISRDNAKNTVYLQINSLKPEDTAVYYFAAEGEETEGYDYDYWGQGTQVTVSS	low polyreactivity
QVQLVESGGGLVQAGGSLRLSCDASGRIFQYNAMGWSRQAPGKLRELVAAITVGGSTNYADSVTGRFTISRDNAKNTVYLQKNSLKPEDTAVSYCNKAWSSSWQVTYGICGQGTQVTVSS	high polyreactivity
QVQLVESGGGLVQAGGSLRLSCDASGRIFYRYTMGWYRQAPGKERELVAAITDDSSTDYADSVKGRFTISRDNAKNTVYLQMNSLKPEDTAVYYCNADWYWKYDYWGQGTQVTVSS	low polyreactivity
QVQLVESGGGLVQAGGSLRLSCDASGRIIQQYAMGWYRQAHGKERELVDAISRGGSTYYADSVKGRFTISRDNAKNTVYLQMNSLKPEDTAVYYCAVRSRRGLKYDYWGQGTQVTVSS	high polyreactivity
QVQLVESGGGLVQAGGSLRLSCDASGRTFFYNAMGLYRQAPGKERELVAAISKNGGNTYYADSVKGRFTISRDNAKNTVYLQMNSLKPEDTAVYYCAARQSRTGPDRNDYWGQGTQVTVSS	high polyreactivity
QVQLVESGGGLVQAGGSLRLSCDASGRTFKQNAMGWYRQAPGKERELVATIRNGVNTNYEDSVKGRFTISRDNAKNTVYLQMNSLKPEDTAVYYCAARYWQAHAFQGNTGYSWQYGYWGQGTQVTVSS	high polyreactivity
QVQLVESGGGLVQAGGSLRLSCDASGRTFVRYAMGWYRQAPGKERELVARITSRGTSTYYADSVKGRFTISRDNAKNTVYLQMNSLKPEDTAVYYCNKVRTFRDKSRYDYWGQGTQVTVSS	low polyreactivity
QVQLVESGGGLVQAGGSLRLSCDASGRTIRHNAMGWYRQAPGKERELVAAISKRGGRTYYADSVKGRFTISRDNAKNTVYLQMNSLKPEDTAVYYCATRSSGYSLGDYWGQGTQVTVSS	high polyreactivity
QVQLVESGGGLVQAGGSLRLSCDASGSIFEYYAMGWYRQAPGKERELVAAIRVSDVNTYYADSVKGRFTISRDNAKNTVYFQMNSLKPEDTAVYYCANAYKGYSDFDYWGQGTQVTVSS	high polyreactivity
QVQLVESGGGLVQAGGSLRLSCDASGSIFGINVMGWYRQAPGTERELVARINDGADTNYADSVKGRFTISRDNAKNTVYLQMNSLKPEDTAVYYCAKPYYDGRTHFDSWGQGTQVTVSS	low polyreactivity
QVQLVESGGGLVQAGGSLRLSCDASGSIFGPYARGWYRQEPGKERELVAAITWTGGRTYYADSVKGRFTISRDNAKNTVYLQMNSLQPEDTAVYYFAADYSPSTWDLYYTLYYYWGQGTQVTVSS	low polyreactivity
QVQLVESGGGLVQAGGSLRLSCDASGSIFQAYAIGWYRQAPGKEREFVAVITWGGGSTSYADSVKGRFTISRDNAKNTVYLQMNSLKPEDTAVYYCNADSQEWIWLYEGYDYWGQGTQVTVSS	low polyreactivity
QVQLVESGGGLVQAGGSLRLSCDASGSIFSTYVMGWYRQAPGKERELVAAITVSVGSTYYADSVKGRFTISRDNAKNTVYLQMNSLKPEDTAVYYCAAGSYSRYLYSLYFDFDYWGQGTQVTVSS	low polyreactivity
QVQLVESGGGLVQAGGSLRLSCDASGSIFYIYAMGWSRQAPGKERELVATISGSGGSTHYADSVKGRFTISRDNAKNTVYLQMNSLKPEDTAVYYCDADVLPYGYYWGQGTQVTVSS	low polyreactivity
QVQLVESGGGLVQAGGSLRLSCDASGSIFYRNVMGWYRQAPGKERELVAAISGRGGSTYYADSVKGRFTISRDNAKNTVYLQMNSLKPEDTAVYYCAADKGYRYISYYYWGQGTQVTVSS	high polyreactivity
QVQLVESGGGLVQAGGSLRLSCDASGSIIIGNSMGWYRQAPGKERELVAVINGSDGTTYYADSVKGRFTISRDNAKNTVYLQMNSLKPEDTAVYYCNADFIDPSVYDYNYWGQGTQVTVSS	low polyreactivity

Sequence	polyreactivity (PSR sort gate)
QVQLVESGGGLVQAGGSLRLSCDASGSILRYYAMGWYRQAPGKERELVADISTSGGSTYYADSVKGRFTISRDNAKNTVYLQMNSLKPEDTAVYYCAKPWYSSGFDYWGQGTQVTVSS	high polyreactivity
QVQLVESGGGLVQAGGSLRLSCDASGSTFAPNTMGWYRQAPGKVREFVADISFSGGSTYYADSVKGRFSISRDNAKNTVYLQMTSRKPEDTAVYYCNAYYSYWFTQYDYWGQGTQVTVSS	high polyreactivity
QVQLVESGGGLVQAGGSLRLSCDASGSTFDSYAMGWYRQAPGKERELVAAINQGGGSTYYADSVKGRFTISRDNAKNTVYLQMNSLKPEDTAVYYCGADRSGSFYKLDYWGQGTQVTVSS	low polyreactivity
QVQLVESGGGLVQAGGSLRLSCDASGSTFGRNAMGCYRQAPGKESELVAAITASGGRTYYADSVKGRFTISRDNAKNTVYLQMNSLKPEDTAVYYCAAASRVGFLYYYWGQGTQVTLSS	low polyreactivity
QVQLVESGGGLVQAGGSLRLSCDASGSTFKNYAMGWYRQAPGKERELVAGINWYGGRTYYADSVKGRFTISRDNAKNTVFLQMNSLKPEDTAVYYCAAALPGYGDYYYWGQGTQVTVSS	high polyreactivity
QVQLVESGGGLVQAGGSLRLSCDASGSTFRANAMGWYRQAPGKECELVAAISQSGGITYYADSVKGRFTISRDNAKNTVYLQMNCLKPEDTAVYYCAAKGSYSYDVGGPVYQRTYGYWGQGTQVTVSS	high polyreactivity
QVQLVESGGGLVQAGGSLRLSCDASGSTFRHYAMGWYRQAPGKERELVAAISSTGGSTYYADSVKGRFTISRDNAKNTVYLQMNSLKPEDTAVSYCAARRLYWGQGTQVTVSS	high polyreactivity
QVQLVESGGGLVQAGGSLRLSCDASGSTFTRYVMGGYRQPPGKERELVAVISSSAGSTYYADSVKGRFTISRDNAKNTVYLQMNSLKPEDTAVYYCAARYSAKHYGYGYWGQGTQVTVSS	high polyreactivity
QVQLVESGGGLVQAGGSLRLSCDASGTFYGKTMGWYRQAPGKERELVAVISIDGSTNYADSVKGRFTISRDNAKNTVYLQMNSLKPEDTAVYYCNARNQWRTVGKYDYWGQGTQVTVSS	low polyreactivity
QVQLVESGGGLVQAGGSLRLSCDPSGSIFYRNAMVWYRPAPGKERELVATITVNGGRTYYADSVKGRFTISRDNAKNTVYLQMNSLKPEDTAVYYCAKDVHRWYPYDYWGQGTQVTVSS	low polyreactivity
QVQLVESGGGLVQAGGSLRLSCDPSGYTLVDYAMGWYRQAPGKESELVAGISSGDSTYYADSVKGRFTISRDNAKNTVYLQMNSLKPEDTAVYYCNAGLKTIFLLYRWTLFDYWGQGTQVTVSS	high polyreactivity
QVQLVESGGGLVQAGGSLRLSCDSSGSIFGYYAMGWYRQAPGKERELVAAITSGGNTYYADSVKGRFTISRDNAKNTVYLQMNSLKPEDTAVYYCNAVWRTRDYDYWGQGTQVTVSS	low polyreactivity
QVQLVESGGGLVQAGGSLRLSCDSSGSIFYYYAMGWYRQAPGKERELVAAISRRGGSTYYADSVKVRFTISRDNAKNTVYLQMNSLKPVDTAVYYCAADSPRGYDYWGQCTQVTVSS	high polyreactivity
QVQLVESGGGLVQAGGSLRLSCEASGRIFGWYAMGWYRQAPGNERELVAALTNSGGSTYYADSVKGRFTISRDYEKNTVYFQMNRLKPEDTGVYFCAAESWIRRWYGGGKKYEYWGQGTQVTVSS	high polyreactivity
QVQLVESGGGLVQAGGSLRLSCGASGFTFRSYAMGWYRQAPGKEGELVATISSGGTTKYADSVQGRFTISRDNANNTVYLQMNSLKPEDTAVYYCAARTSVLGRNFNYWGQGTQVTVSS	high polyreactivity
QVQLVESGGGLVQAGGSLRLSCGASGFTFYGYAMGWYRHGPGKESELVAAITGSGARTNYADSVKGRFTISRDKAKNTVYLQMNSLKPEDTAVYYCNKVGVTRDGSTYRVREDDYWGQGTQVTVSS	high polyreactivity
QVQLVESGGGLVQAGGSLRLSCGASGFTIQRNAIVWSRQAPGKERELVAAITRGGSTYYADSVKGRFTISRDNAKNTVYLQMNSLKPEDTAVYYCAKRIFSSYIGYGYWGQGTQVTVSS	high polyreactivity
QVQLVESGGGLVQAGGSLRLSCGASGLTFVWYGMGWYRQAPGKERELVAAITRGGSTYYADSVKGRFTISRDNAKNTVYLQMNSVKPEDTAVYYCAARYKYTGYDYWGQGTQVTVSS	high polyreactivity
QVQLVESGGGLVQAGGSLRLSCGASGRIFRYYAMGWYRQAPGTDREVVAAITQRGGSTYADSVKGRFTISRDNAKKTVYLQMNSLKPEDTADYSCPYRGSFLYDYWGQGTQVTVSS	low polyreactivity
QVQLVESGGGLVQAGGSLRLSCGASGRIFSYYAMGWYRQAPGKERELVAAINTGGDTYYADSVKGRFTISRDNAKNTVYLQMNSLKPEDTAVYYCAAAYGWGYYYGYGYTPTYDYWGQGTQVTVSS	low polyreactivity
